Measurements taken from the nanobody polyreactivity screen of Harvey et al. (2022).

test: yeast display, Sf9 membrane polyspecificity reagent, FACS + sequencing; frameworks hold sequencing errors
In short: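 Synthetic nanobody libraries on Saccharomyces cerevisiae BJ5465 were galactose-induced for 36–48 hours, stained 1 hour at 4 °C with 10% biotinylated, detergent-solubilized Sf9 membrane reagent and enriched on streptavidin microbeads. FACS then separated cells into low and high (top ~1%) gates by anti-HA (expression) and streptavidin (reagent binding) fluorescence. Genes were colony-PCR amplified, MiSeq 2 × 250 sequenced and CDR-length filtered. A clone's polyreactivity label is that of its gate of origin.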

Sequence	polyreactivity (PSR sort gate)
QVQLVESGGGLVQAGGSLRLSCAASGRIFGGNAMGWYRQAPGKERELVAAISKRGGSTYYADSVKGRFTISRDNAKNTVYLQMNSLKPEDTAVYYCAAGFTAWTGVWYGYWGQGTQVTVSS	high polyreactivity
QVQLVESGGGLVQAGGSLRLSCAASGRTFDSNTMGWYRQAPGKERELVAAITGSGGRTYYADSVKGRFTISRDNAKNTVYLQMNSLKPEDTAVYYCNADSLYRYGSQYYYWGQGTQVTVSS	high polyreactivity
QVQLVESGGGLVQAGGSLRLSCAASGSIFGYYAMGWYRQAPGKERELVAAISWSGGSTYYADSVKGRFTISRDTAKNTVYLQMNSLKPEDTAVYYCAATSRGNDSQKYYYWGQGTQVTVSS	low polyreactivity
QVQLVESGGGLVQAGGSLRLSCAASGRIFKYYAMGWYRPAPGKERELVAAISRSSGRTYYADSVKGRFTISRDNAKNTVYFQMNSLKPEDTAVYYCNALPSTVYLTYDYWGQGTQVTVSS	high polyreactivity
QVQLVESGGGLVQARGSLRLSCAASGSTFGLYAMGWYRQAPGKERELVAAISYSGSSTYYADSVKGRFTISRDNAKNTVYLQMNSLKPEDTAVYYCAARRSEHGYNYWGQGTQVTVSS	high polyreactivity
QVQLVESGGGLVQAGGSLRLSCAASGFTLKWYAMGWYRQAPGKERELVAAINDRGGNTYYADSVKGRFTISRDNAKNTVYLQMNSLKPEDTAVYYCAVRGKTYRPYYYWGQGTQVTVSS	high polyreactivity
QVQLVESGGGLVQAGGSLRLSCAASGRIFYYNAMGWYRQAPGKERELVAAITSVGSTNYADSVKGSFTISRDNAKNTVYLQMNSLKPEDTAVYYCARASAWYVTLVGKYTKYDYWGQGTQVTVSS	low polyreactivity
QVQLVESGGGLVQAGGSLRLSSAASGRIFYHNTMGWYRQAPGKERELVAAIRSGSSTYYADSVKGRFTISRDNAKNTVYLQMNSLKPEDTAVYYCNARPWYSWGVDYDYWGQGTQVTVSS	low polyreactivity
QVQLVESGGGLVQAGGSLRLSCAASGFTLGRYAKGWYRQAPGKERELVAAISSGGRTYYADSVKGRFTISRDNAKNTVYLQMNSLKPEDTAVYYCAADPRYISYDYWGQGTQVTVSS	low polyreactivity
QVQLVESGGGLVQAGGSLRLSCAASGSTFLYYTMGWYRQAPGKERELVAAITSGGDSNYADSVKGRFTISRDNAKNTVYLQMNSLKPEDTAVYYCNAEYTWSGTKIYTYKYDYWGQGTQVTVSS	low polyreactivity
QVQLVESGGGLVQAGGSLRLSCAASGRTFPGYAMGWYRQAPGKERELVAGISYRGGSTYYADSVKGRITISRDIAKNSVYLQMISLKPEDTAVYFCARDYSRHKGDLWGQGTQVTVSS	low polyreactivity
QVQLVESVGGLVQAGGSLRLSCAASGSTFYPNAMGLYRQAPGKESELVAAITSGGSTYYADSVKGRFTISRDNAKNTVYLQMNTLKPEDTAVYYCAAQRRYHLDTTIGPGNYYYWGQGTQVTVSS	low polyreactivity
QVQLVESGVGLVQAGGSLRLSCAASGSTFRGYAMGWYRQAPGKERELVAAISSSGGRTYYAYSVKGRFTISRDNAKNTVYLQMNSLKPEDTAVYYCNAASKNSVRYAYQNYDYWGQGTQVTVSS	high polyreactivity
QVQLVESGGGLVQAGGSLRLSCAASGSIFSHNAMGWYRQAPGKERELVAAISRSGGSTYYADSVKGRFTISRDNAKNTVYLQMKSLKPEDTAVYYCAVRAYKVSRYYYWGQGSQVTVSS	low polyreactivity
QVQLVESGGGLVQAGGILRLSCAASGIIFRKNAMGWYRQAPGKERELVAAISSTGASTNYADSVKGRFTISRDNAKNTVYLQMNSLKPEDTAVYYCAASRTRYWKYDYWGPGTQVTVSS	high polyreactivity
QVQLVESGGGLVQAGGSLRLSCAASGRTFYTYAMGWYRQAPGKERELVATITSGGSTYYGDSVKGRFTISRDNAKNTVYLQMNSLKPEDTAVYYCDVEVFVDYDYWGQGTQVTVSS	high polyreactivity

Sequence	polyreactivity (PSR sort gate)
QVQLVESGGGLVQAGGSLRLSCAASGFIFGGYAMGWYRQAPGKERELVAAISRSGGSTYYADSVKGRFTISRDNAKNTVDLQINSLKPEDTAVYYCYAVTRRQGFNYWGQGTQVTVSS	high polyreactivity
QVQLVESGGGLVQAGGSLRLSCAASGFIFRYYAMGWYRQAPGKEREFVAVISSGGGRTYYADSVKGRFTISRDNAKNTVYLQMNSLKPEDTAVYYCAKGYRYWVRIVRSFTSYDYWGQGTQVTVSS	high polyreactivity
QVQLVESGGGLVQAGGSLRLSCAASGSIFFLYAMGWYRQAPGKEREFVAAITGTADSTYYADSVKGRFTISRDDAKNTVYLQMNSLKPEDTAVYYCATDYWSSVKLDDYWGQGTQVTVSS	low polyreactivity
QVQLVESGGGLVQAGGSLRLSCAASGNTFYPHAMGWYRQAPGTERELVAAISSTGGRTYYADSVKGRFTISRDNAKNTVYLQMNSLKPEDTAVYFCNTYACVAGDYWGQGTQVTVSS	high polyreactivity
QVQLVESGGGLVQAGCSLRFSSAASGRISNYPMGWYRQPPGKERELVAAITWSGGSTYADSVKGRFTISRDNAKNTVYLQMNSLKPEDTAVYYWAARGTRYWDYRYYAYNYWGQGTQVTVSS	high polyreactivity
QVQLVESGAGLVQAGGSLRLSCAAYGFIFRTNAMGWYRQAPGKERELVAAISNSGGRTYYADSVKGRFTLSRDNSKNTVYLQMNSLKPEDTAVYYCAAVLWYDIYYGGDYWGQGTQVTVSS	high polyreactivity
QVQLVESGGGLVQAGGSLRLSCAASGSIFWLYAMGWYRQAPGKERELVAAIDSGDSTKYADSVKGRFTISRDNAKTTVYLQMNSLKPEDTAVYYCNASRRYHVRAPYDYWGQGTQVTLSS	low polyreactivity
QVQLVESGGVLLQAGGSLRLTCAASGSIFQYNALVGYRQAPGKVREFVAAITRGDSTYYADSVKGRFTISRDNAKNTVYLQMNSLKADDTAVYYCAKRGWFYGGRDYWGQGTQVTVSS	high polyreactivity
QVQLVESGGGLVQAGGSLRLSCAASGSTFVIYAMGLYTQAPGKERELVAAISRRTGSTYYADSVKGRFTISRYNAKNTVYLQMNSLKPEDTAVYYCAADYRYYTKYYGYLTYYYWGQGTQVTVSS	high polyreactivity
QVQLVESGGGLVQAGGSLRLSCAASGSIFSINAMVSYRQAPGKERELVAAISASGGSTYYADSVKGRFTISRDFAKITVYLHMNSLKPEDTAVFYCAAEGSPTGYDYWGQGTQVTVSS	low polyreactivity
QVQLVESGGGLVQAGGSLRLSCAASGTFSFYALGWYRHAPGKERELVATIRSGGRTYYADSVKGRFTISRDTAKNTVYLQMNSLKPEDTAVYYCAKTGFLGLRQYGYWGQGTQVTVSS	high polyreactivity
QVQLVESGGGLVQAGGSLRLSCAASGRISFVNAMGWYRQAPGKERELVAAISRGGSTNYADSVKGRFTISRDNAKNTVYLQMNSLKPEDTAVYYCAAQGNNYVRHTYGYWGQGTQVTVSS	low polyreactivity
QVQLLESGGGLVQAGGSLRLSCAAAGIIFGYYTMGWYRQAPGNERELVAAITTTGGSTYYADSVKGRCTISRDNAKNTVYLQMNSLKPEDTAVYYCAARKWSHRTISDYWGQGTQVTVSS	high polyreactivity
QVQLVESGGGLVQAGGSLRLSCAASGSTFDVNAMGWYRQAPGKERELVAVITSGGSTNYADSVKGRFTISRDNAKNTVYLQMNRLKPEDTAVYYCAKDSRTLYDYWGQGTQVTVSS	low polyreactivity
QVQLVESGGGLVQAGGSLRLSCAASGFTFKYYAMGWYRQAPGKERELVAAISSRGGSTYYADSVKGRFTISRDKAKNTVYLQMNSLKPEDTAVYYCAAYYRTGSIWYAIFSDDYWGQGTQVTVSS	high polyreactivity
QVHLVESGGGLDQAGGSLRLSSAASGSIFDKYAMVWYRQAPGKERELVAAITSGGRTYYADSVKGRFTISRDNAKNTVYLQMNSLKPEDTAVYYCAAGARRSYYPSQYYYWGQGTQVTVSS	low polyreactivity
